{"source": "paper doi:10.1101/2025.05.27.656304", "about": "“Structure of the conjugation surface exclusion protein TraT” (bioRxiv, 2025)", "proteins": {"B1": {"name": "F plasmid TraT complex (Twin-Strep tagged recombinant TraT) (complex, Escherichia coli (F plasmid), UniProt P13979 22-244, looked up)", "chain": "CGAMSTAIKKRNLEVKTQMSETIWLEPASERTVFLQIKNTSDKDMSGLQGKIADAVKAKGYQVVTSPDKAYYWIQANVLKADKMDLRESQGWLNRGYEGAAVGAALGAGITGYNSNSAGATLGVGLAAGLVGMAADAMVEDVNYTMITDVQIAERTKATVTTDNVAALRQGTSGAKIQTSTETGNQHKYQTRVVSNANKVNLKFEEAKPVLEDQLAKSIANIL", "modifications": "lipid anchor on the N-terminal cysteine (density not resolved)", "notes": "TraT surface exclusion outer membrane lipoprotein of the E. coli F plasmid; the traT gene was cloned into a pET22b-derived vector; the protein in the structure begins at the lipidated N-terminal cysteine; Homodecamer by cryo-EM; also called TraTF; TraT-TS; copies: 10"}}, "target": "the molecule itself", "test": "cryo-EM structure; purified TraT (12 mg/ml) in 100 mM Tris, 150 mM NaCl, 0.02% DDM, pH 8; global resolution 2.01 Å"}
{"protein": "B1", "values": [{"measurement": "stoichiometry N", "result": 10}]}
